Measurements reported in paper PMC10679996.

Target: HSC70 (UniProt P11142)
Test: anti-FLAG co-IP, Western blot
Settings: reference: wild type; sites T290

binding against the reference: weaker
Substance: PD-L1 (from UniProt Q9NZQ7) T290A
